Substitutions are numbered along the chain they refer to. One block for each binder: values may come before it.
How the values were obtained:
human LIV-1 = target: T1, human LIV-1 (human, UniProt Q13433 29-755); experiment: FACS, human LIV-1 cells
T1 construct: whole, on cells; also called H-LIV1
T1 sequence (looked up): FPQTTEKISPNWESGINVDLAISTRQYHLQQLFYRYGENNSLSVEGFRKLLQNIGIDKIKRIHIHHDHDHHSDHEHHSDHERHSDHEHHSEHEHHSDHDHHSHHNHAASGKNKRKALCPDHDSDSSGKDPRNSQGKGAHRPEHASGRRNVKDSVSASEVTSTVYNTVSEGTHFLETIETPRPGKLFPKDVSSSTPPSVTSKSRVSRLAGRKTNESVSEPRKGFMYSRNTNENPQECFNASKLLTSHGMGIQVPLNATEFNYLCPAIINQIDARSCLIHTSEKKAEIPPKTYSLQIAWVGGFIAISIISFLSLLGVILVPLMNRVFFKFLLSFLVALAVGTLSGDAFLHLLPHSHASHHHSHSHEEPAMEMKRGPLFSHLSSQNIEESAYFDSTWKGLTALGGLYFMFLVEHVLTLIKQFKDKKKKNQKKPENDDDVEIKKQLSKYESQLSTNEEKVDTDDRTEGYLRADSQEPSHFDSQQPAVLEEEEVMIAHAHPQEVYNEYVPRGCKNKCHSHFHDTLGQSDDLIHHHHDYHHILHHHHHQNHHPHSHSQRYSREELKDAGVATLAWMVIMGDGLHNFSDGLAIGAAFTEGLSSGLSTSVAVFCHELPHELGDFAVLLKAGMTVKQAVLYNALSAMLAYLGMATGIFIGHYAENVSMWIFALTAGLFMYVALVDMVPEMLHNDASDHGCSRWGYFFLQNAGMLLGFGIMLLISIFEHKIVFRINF
Method: In this example, cell based binding of humanized antibodies (hu Abs) on human LIV-1-expressing cells were assessed using flow cytometry.
Cell based binding of hu-Abs on human LIV-1 expressing cells were assessed using flow cytometry. Briefly, the HEK293/H_LIV-1 cells were incubated with hu-Abs (from 100 nM, 6 folds dilution, 8 points). After incubation at 4° C. for 60 minutes, the cells were washed with FACS buffer twice, then stained with fluorescent conjugated secondary antibody at 4° C. for 30 minutes. After that the cells were washed twice and analyzed by flow cytometry.

cynomolgus LIV-1 = cynomolgus LIV-1 (cynomolgus, UniProt A0A2K5WH46 30-741); experiment: FACS, cyno LIV-1 cells
Sequence of cynomolgus LIV-1 (A0A2K5WH46 entry or part of it): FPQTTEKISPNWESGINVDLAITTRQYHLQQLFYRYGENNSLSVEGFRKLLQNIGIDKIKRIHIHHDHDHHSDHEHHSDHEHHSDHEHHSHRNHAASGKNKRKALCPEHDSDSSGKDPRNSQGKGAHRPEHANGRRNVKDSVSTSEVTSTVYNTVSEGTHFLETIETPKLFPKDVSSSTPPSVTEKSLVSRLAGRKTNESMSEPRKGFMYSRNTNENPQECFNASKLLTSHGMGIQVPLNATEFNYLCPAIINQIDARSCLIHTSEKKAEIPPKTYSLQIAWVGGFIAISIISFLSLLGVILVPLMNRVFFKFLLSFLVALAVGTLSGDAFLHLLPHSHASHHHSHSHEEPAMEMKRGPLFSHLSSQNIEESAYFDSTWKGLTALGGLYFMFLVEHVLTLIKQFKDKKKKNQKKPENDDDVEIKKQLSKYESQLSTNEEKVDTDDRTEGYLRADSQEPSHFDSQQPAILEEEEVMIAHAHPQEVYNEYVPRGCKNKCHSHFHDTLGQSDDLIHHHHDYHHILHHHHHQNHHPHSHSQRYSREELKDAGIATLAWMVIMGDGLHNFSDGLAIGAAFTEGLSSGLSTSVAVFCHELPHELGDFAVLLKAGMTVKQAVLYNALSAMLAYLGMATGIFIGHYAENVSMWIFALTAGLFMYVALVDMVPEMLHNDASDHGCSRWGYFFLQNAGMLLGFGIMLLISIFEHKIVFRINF

EC50 (human LIV-1): 0.35 nM | Top (MFI) (human LIV-1): 7420 MFI | EC50 (cynomolgus LIV-1): 0.46 nM | Top (MFI) (cynomolgus LIV-1): 6890 MFI
B1: 290F10G10.p1.Z6 (antibody, V domains shown)
VH: EVQLVQSGAEVKKPGASVKVSCKASGYTFTSYWIHWVRQAPGQGLEWMGTIYPGDADTRSTQKFKDRVTVTADKSTSTVYMELSSLRSEDTAVYYCARSLIHDDYDKYYFDYWGQGTTVTVSS
VL: DIQMTQSPSSLSASVGDRVTITCKARQDINKYIAWYQHKPGKGPKLLIHYTSILQPGIPSRFSGSGSGRDYTFTISSLQPEDIATYYCLQYDYFFTFGGGTKVEIK

EC50 (human LIV-1): 0.28 nM | Top (MFI) (human LIV-1): 7680 MFI | EC50 (cynomolgus LIV-1): 0.37 nM | Top (MFI) (cynomolgus LIV-1): 7150 MFI
B2: 290F10G10.p1.Z7 (antibody, V domains shown)
VH: B1 VH with M48I, R67K, V68A
VL: B1 VL with H38Q, G43A, H49Y, I58V

EC50 (human LIV-1): 0.39 nM | Top (MFI) (human LIV-1): 7520 MFI | EC50 (cynomolgus LIV-1): 0.51 nM | Top (MFI) (cynomolgus LIV-1): 6820 MFI
B3: 290F10G10.p1.Z17 (antibody, V domains shown)
VH: B1 VH with V2I, Q39E, M48I, R67K, V68A, A97T
VL: B1 VL with H38Q, G43A

EC50 (human LIV-1): 0.36 nM | Top (MFI) (human LIV-1): 7430 MFI | EC50 (cynomolgus LIV-1): 0.56 nM | Top (MFI) (cynomolgus LIV-1): 7040 MFI
B4: 290F10G10.p1.Z18 (antibody, V domains shown)
VH: B1 VH with V2I, Q39E, M48I, R67K, V68A, A97T
VL: B1 VL

EC50 (human LIV-1): 0.27 nM | Top (MFI) (human LIV-1): 7540 MFI | EC50 (cynomolgus LIV-1): 0.36 nM | Top (MFI) (cynomolgus LIV-1): 7190 MFI
B5: 290F10G10.p1.Z8 (antibody, V domains shown)
VH: B1 VH with M48I, R67K, V68A
VL: B1 VL with H38Q, G43A

EC50 (human LIV-1): 0.51 nM | Top (MFI) (human LIV-1): 7940 MFI | EC50 (cynomolgus LIV-1): 0.68 nM | Top (MFI) (cynomolgus LIV-1): 7630 MFI
B6: 290F10G10.p1.Z9 (antibody, V domains shown)
VH: B1 VH with M48I, R67K, V68A
VL: B1 VL

EC50 (human LIV-1): 0.26 nM | Top (MFI) (human LIV-1): 7920 MFI | EC50 (cynomolgus LIV-1): 0.38 nM | Top (MFI) (cynomolgus LIV-1): 7510 MFI
B7: 290F10G10.p1.Z12 (antibody, V domains shown)
VH: B1 VH with A97T
VL: B1 VL

EC50 (human LIV-1): 0.32 nM | Top (MFI) (human LIV-1): 7630 MFI | EC50 (cynomolgus LIV-1): 0.46 nM | Top (MFI) (cynomolgus LIV-1): 7180 MFI
B8: 290F10G10.p1.Z13 (antibody, V domains shown)
VH: B1 VH with M48I, R67K, V68A, A97T
VL: B1 VL with H38Q, G43A, H49Y, I58V

EC50 (human LIV-1): 0.49 nM | Top (MFI) (human LIV-1): 7290 MFI | EC50 (cynomolgus LIV-1): 0.69 nM | Top (MFI) (cynomolgus LIV-1): 6740 MFI
B9: 290F10G10.p1.Z10 (antibody, V domains shown)
VH: B1 VH with A97T
VL: B1 VL with H38Q, G43A, H49Y, I58V

EC50 (human LIV-1): 0.27 nM | Top (MFI) (human LIV-1): 7550 MFI | EC50 (cynomolgus LIV-1): 0.36 nM | Top (MFI) (cynomolgus LIV-1): 7210 MFI
B10: 290F10G10.p1.Z15 (antibody, V domains shown)
VH: B1 VH with M48I, R67K, V68A, A97T
VL: B1 VL

EC50 (human LIV-1): 0.43 nM | Top (MFI) (human LIV-1): 7440 MFI | EC50 (cynomolgus LIV-1): 0.61 nM | Top (MFI) (cynomolgus LIV-1): 6920 MFI
B11: 290F10G10.p1.Z16 (antibody, V domains shown)
VH: B1 VH with V2I, Q39E, M48I, R67K, V68A, A97T
VL: B1 VL with H38Q, G43A, H49Y, I58V

EC50 (human LIV-1): 0.25 nM | Top (MFI) (human LIV-1): 7820 MFI | EC50 (cynomolgus LIV-1): 0.32 nM | Top (MFI) (cynomolgus LIV-1): 7410 MFI
B12: 290F10G10.p1.Z11 (antibody, V domains shown)
VH: B1 VH with A97T
VL: B1 VL with H38Q, G43A

EC50 (human LIV-1): 0.3 nM | Top (MFI) (human LIV-1): 7410 MFI | EC50 (cynomolgus LIV-1): 0.48 nM | Top (MFI) (cynomolgus LIV-1): 7220 MFI
B13: 290F10G10.p1.Z14 (antibody, V domains shown)
VH: B1 VH with M48I, R67K, V68A, A97T
VL: B1 VL with H38Q, G43A

Source: US20240325555A1 (LANOVA MEDICINES, published 2024)
